Patent US20250250355A1
pEC50: −log10 of the molar value.

Biological target: human SIRPα-isoform 2-his protein (human)
Test: indirect ELISA on coated human SIRPα-isoform 2-his, OD(450-630); negative control, curve not visible in the scan

human SIRPα-isoform 2-his protein (human), sequence (chain, as listed by the source limits assumed): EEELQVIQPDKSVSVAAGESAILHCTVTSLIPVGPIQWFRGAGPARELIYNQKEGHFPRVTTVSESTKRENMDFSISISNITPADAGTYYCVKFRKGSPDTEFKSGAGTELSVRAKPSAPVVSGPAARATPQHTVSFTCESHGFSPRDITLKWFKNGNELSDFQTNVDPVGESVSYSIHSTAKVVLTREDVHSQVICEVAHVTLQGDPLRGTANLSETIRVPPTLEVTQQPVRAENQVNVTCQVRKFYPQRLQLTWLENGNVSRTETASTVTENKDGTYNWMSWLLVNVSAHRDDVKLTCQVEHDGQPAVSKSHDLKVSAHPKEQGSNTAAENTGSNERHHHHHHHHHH

pEC50: 7.73
Substance: hIgG (antibody)
